What was measured:
[1] = biological target: GhV F I268F/Q287P ectodomain (Ghanaian virus); experiment: negative-stain EM
[2] = biological target: GhV F I268F/Q287P/S196C/A215C ectodomain (Ghanaian virus); experiment: negative-stain EM

Substance	stoichiometry N [1]	stoichiometry N [2]
GhV F I268F/Q287P ectodomain (domain or fragment)	3	
GhV F I268F/Q287P/S196C/A215C ectodomain (domain or fragment)		3

— PMC11032465
